Positions count from the first letter of the chain named. Each block holds one binder with its values, some of them ahead of it.
Biological target: T1, KIR3DL3 protein (antigen of the affinity determination of Table 3) (human, UniProt Q8N743 26-325, limits assumed)
T1 construct: also called human KIR3DL3
Assay: method and antigen format not stated

B1: monoclonal 34B10 (antibody, V domains shown)
VH: EVKLVESGGVLVQPGGSLRLSCATSGFTFTDYYMGWVRQPPGKALEWLGFIRNKANGYTTESSASVKGRFTISRDNSQSILYLQMNTLRAEDSATYYCARDYYSGSSLDYWGQGTTLTVSS
VL: DIQMTQTTSSLSASLGDRVTISCRASQDISNYLNWYQQKPDGTVKLLIYYTSRLHSGVPSRFSGSGSGTDYSLSISNLEQEDIATYFCQQGYTLPYTFGGGTKLEIKR
notes: Mouse hybridoma mAb; Entries include leader
- Kd: 1.51 nM

B2: monoclonal 14F8 (antibody, V domains shown)
VH: QVQLQQSGPEVVRPGVSVKISCKGSGYTFTDYTMHWVKQSHAKSLEWIGVISTYNGNTNYNQNFEGKATMTVDKSSSTAYMELARLTSEDSAIYYCARERGGDGYYSAVDYWGQGTSVTVS
VL: SIVMTQTPKFLLVSAGDRVTITCKASQSVINDVAWYQQKPGQSPKLLIYYASNRYTGVPDRFTGSGYGTDFTFTISTVQAEDLAVYFCQQDYSSPYTFGGGTKLEIKR
- Kd: 0.69 nM

B4: monoclonal 29H7 (antibody, V domains shown)
VH: QVQLQQSGPEVVRPGVSVKISCKGSGYTFTDYVMHWVKQSHGKSLEWIGVISTYNGNTNYNQKFKGKATMTVDKSSSTAYMELARLTSEDSAIYYCARERGGDGYYSAMDYWGQGTSVTVSS
VL: B2 VL with T22A, D32N, K45E, S76T
notes: Mouse hybridoma mAb; Entries include (partial) leader
- Kd: 1.13 nM

B6: monoclonal 37A3 (antibody, V domains shown)
VH: QVQLVETGGGLVRPGNSLKLSCVTSGFTFSNYRMHWLRQPPGKRLEWIAVITVKSDNYGANFAESVKGRFTISRDDSKSSVYLQMNRLREEDTATYYCSRGSGPGFAYWGQGTLVTVS
VL: DIVMTQSPSSLSVSAGEKVTMSCKSSQSLLNSGNQKNYLAWYQQKPGQPPKLLIYGASTRESGVPDRFTGSGSGTDFTLTISSVQAEDLAVYYCQNDHSYPFTFGSGTKLEIK
notes: Mouse hybridoma mAb
- Kd: 8.5 nM

B8: monoclonal 31C4 (antibody, V domains shown)
VH: QAYLQQSGAELVRSGASVKMSCKASGYTFTSYNMHWVKQTPGQGLEWIGYIFPGDGGTNYNQKFKGKATLTADTSSSTAYMQISSLTSEDSAVYFCARSGNYGNYEGFAYWGQGTLVTVSA
VL: DIKMTQSPSSMYASLGERVTITCKASQDINSYLSWFQQKPGKSPKTLIYRANRLVDGVPSRFSGSGSGQDYSLTISSLEYEDMGIYYCLQYDEFPYTFGGGTKLEIKR
notes: Mouse hybridoma mAb; Entries include leader (and vector-derived residues in the VL)
- Kd: 0.72 nM

Now those with a lower Kd, led by results:

- Kd: 0.19 nM
B3: monoclonal 51C3 (antibody, V domains shown)
VH: EVQLQQSGPELVKPGASVKISCKTSGYTFTEYIMHWVKQSHGKSLEWIGGINPNNGGTNYNQKFKGKATLTVDTSSSIAYMELRSLTSEDSAVYYCARDDGYYVKFAYWGQGTLVTVSA
VL: B2 VL with Y96F, G100S
notes: as for B1

- Kd: 0.16 nM
B5: monoclonal 30D10 (antibody, V domains shown)
VH: EVQLQQSGAELVRPGALVKLSCKASGFNFKDYFMHWVKQRPEQGLEWIGWIDPENGNTIYEPKFQGKASITADTSSNTAYLQLSSLTSEDTAVYYCARGGVGHWYFDVWGAGTTVTVS
VL: DIVLTQSPASLAVSLGQRATISCKASQSVDYDGDSYMNWYQQKPGQPPKLLIYVASNLKSGIPARFSGSGCGTDFTLNIHPVEEEDGATYYCQQTNEDPWTFGGGTKLEIK
notes: Mouse hybridoma mAb; VH entry includes leader and vector-derived residues

- Kd: 0.17 nM
B7: monoclonal 26E10 (antibody, V domains shown)
VH: B8 VH with M34I, F52Y, G57V
VL: DIKMTQSPSSMYASLGERVTITCKASQDTNSYLSWFQQKPGKSPKTLIYRANRLVDGVPSRFSGSGSGQDYSLTISSLEYEDMGIYYCLQYDEFPYTFGGGTKLEIK

- Kd: 0.11 nM
B9: monoclonal 8G7 (antibody, V domains shown)
VH: EVMLVESGGGLVKPGGSLKLSCAASGFTFSTYAMSWVRQTPEKRLEWVATILSGGNYTYYPDSVKGRFTISRDNAKNTLNLQMSSLRSEDTAMYYCVIPYGSSPFDYWGQGTTLTVS
VL: SIVMTQTPKFLLVSAGDRVTITCKASQSVSNDVAWYQQKPGQSPKLLIYYASNRYTGVPDRFTGSGYGTDFTFTISTVQAEDLAVYFCQQDYSSPWTFGGGTKLEIK
notes: Mouse hybridoma mAb; also called anti-KIR3DL3 mAb clone 8G7
